We go through three molecules from publication PMC10955490.

For data set [1], the target named is T1, SlERF36 (Solanum lycopersicum (tomato), UniProt A0A3Q7IBC2 1-221). The data set can be described thus: competition.
In data set [2] the target is T1, SlERF36. The data set can be described thus: EMSA. (In general: Mobility shift assays separate free from complexed probe on a gel.)

B1: SlGA2ox3 promoter GCC-box unlabelled competitor (dsDNA)
DNA 1: ATGCCCCCATCTGCCGCCCCTTCATATTTC
DNA 2: GAAATATGAAGGGGCGGCAGATGGGGGCAT
Turning to B1, in data set [1], the binding result was “binds”.

B2: SlGA2ox3 promoter mutated probe (dsDNA)
DNA 1: ATGCCCCCATCTAAAAAACCTTCATATTTC
DNA 2: GAAATATGAAGGTTTTTTAGATGGGGGCAT
B2: the binding result in data set [2] is on record as “no binding”.

B3: SlGA2ox3 promoter GCC-box probe (dsDNA)
DNA 1: ATGCCCCCATCTGCCGCCCCTTCATATTTC
DNA 2: GAAATATGAAGGGGCGGCAGATGGGGGCAT
For B3, in data set [2], the binding result is reported as “binds”.
